According to patent US20090215686A1:

Biological target: Met on MDCK (Madin-Darby canine kidney) cells (canine) (UniProt Q75ZY9)
Test: cell-based or functional assay

| concentration at which agonistic activity is seen (MDCK colony scatter) | Substance |
| --- | --- |
| > 10 nM | NK1 version of the receptor-binding mutant K1M (E195A:R197A:Y198A) (from UniProt P14210 28-209) (ligand) |
| 100 nM | NK1 version of the receptor-binding mutant K1N (E159A:S161A:E195A:R197A:Y198A) (from UniProt P14210 28-209) (ligand) |
